± gives the standard deviation of the averaged measurements.
Tested on: ATP
Assay: switch fluorescence ratio, 500 uM ATP over buffer (Cy3 cluster intensity, sum of 5 cycles each) (fold (ratio)); higher = stronger signal-on switching upon ATP binding; sequences stand for … in TCGTCGGCAGCGTCAGATGTGTATAAGAGACAGTTTTTTTTTTTTTTTTTTTTTTTTT…TC
Settings: aptamer strand: ATP DNA aptamer (quencher-CACCTGGGGGAGTATTGCGGAGGAAGG + anchor), 100 nM annealed; ATP concentration: 500 uM
Procedure, shortened: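 Between each of five buffer/ATP cycles, the flow-cell was stripped with NaOH and re-annealed. Each cycle imaged Cy3-labelled switching-strand clusters, annealed to 100 nM quencher-labelled ATP aptamer on a modified Illumina MiSeq flow-cell, first in selection buffer and then after 15 min with 500 uM ATP at 22 °C. The fluorescence ratio is summed target-cycle over summed buffer-cycle Cy3 intensity per cluster, averaged per switch-domain sequence, with clusters outside 100-1000 RFU excluded.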
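Also: ATP exposure 15 min at 22 °C before imaging.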

Row | Sequence | switch fluorescence ratio
1 | CCTTTGGGTC | 0.98 ± 0.014
2 | TTTTTGTGAC | 0.999 ± 0.027
3 | TGGGGCGGCG | 0.976 ± 0.03
4 | AGGGATGTTT | 0.999 ± 0.026
5 | CGGGTGGTTA | 1.01 ± 0.022
6 | TGATAGGTGG | 1 ± 0.028
7 | AAGTATTATC | 1.01 ± 0.019
8 | TAGGGAAAAC | 1.05 ± 0.12
9 | CGACATACGA | 1.56 ± 0.033
10 | CATTGAGTGC | 1.034 ± 0.0017
11 | TTAACAGGGG | 1.33 ± 0.26
12 | ACGTTGGGTC | 1.02 ± 0.06
13 | GCGTAAACGG | 1.06 ± 0.022
14 | GACCCGTCCA | 0.995 ± 0.024
15 | ATGTTGGGAC | 1.02 ± 0.032
16 | GGTTAACTAG | 1.02 ± 0.011
17 | TTTAAAAGA | 1 ± 0.02
18 | ACGCCTGGTC | 1.01 ± 0.059
19 | TTTTGTGTTT | 0.997 ± 0.028
20 | TGGAATTTGG | 1 ± 0.038
21 | CGGGGTAAGG | 0.988 ± 0.024
22 | TTTTGTTCAG | 0.985 ± 0.037
23 | TGTTGGGGG | 0.994 ± 0.062
24 | CAGATAAAAA | 1.03 ± 0.02
25 | AGGAGTATTT | 1 ± 0.024

Row | Sequence | switch fluorescence ratio
26 | AGTCGCCCGC | 1.02 ± 0.032
27 | CCAATCCAGT | 1.01 ± 0.013
28 | CCATGCGATG | 1.21 ± 0.1
29 | GTATGCGTGC | 1.04 ± 0.017
30 | TCGTAGTGGC | 1.11 ± 0.1
31 | CCCAAAAACG | 1.25 ± 0.29
32 | TTCATGGATA | 0.999 ± 0.066
33 | TTTAAAGAGT | 0.972 ± 0.022
34 | TGCTGGCTGG | 0.973 ± 0.0016
35 | TATAATACGG | 1.02 ± 0.02
36 | ATGGGCGGGT | 1 ± 0.035
37 | AGGGGGGGAC | 1 ± 0.021
38 | GATGTGATTA | 0.982 ± 0.039
39 | TATGTTTTCT | 1.01 ± 0.039
40 | GTTGCAGTTC | 1.01 ± 0.034
41 | TTTTCTTGTC | 1.038 ± 0.0076
42 | GATAAATGGG | 0.994 ± 0.024
43 | ACGCCATTCT | 1.151 ± 0.0096
44 | GAGGGCTTGG | 1.05 ± 0.016
45 | TAGGGATATA | 0.985 ± 0.035
46 | AATTTCTCGT | 0.996 ± 0.016
47 | ATTTTATAGT | 1 ± 0.055
48 | CGCGGGGATA | 1.18 ± 0.23
49 | CCGGGGTCGG | 1.04 ± 0.057
50 | TTGGTGCGGA | 0.975 ± 0.056

Row | Sequence | switch fluorescence ratio
51 | GGGGTGGACG | 1.07 ± 0.021
52 | GCGGAACGTG | 0.997 ± 0.04
53 | TTCTCGGTTT | 1.02 ± 0.025
54 | TAGAGAAATT | 0.976 ± 0.023
55 | TAATTGATTA | 1.0033 ± 0.00096
56 | GATGGGGGTG | 1.02 ± 0.053
57 | TTTGAAAACT | 0.995 ± 0.024
58 | TTTTGTTGCG | 1.03 ± 0.043
59 | CTTTATGGTT | 0.99 ± 0.065
60 | ATGTTTTATA | 1.02 ± 0.023
61 | CTCGTGGCGG | 1.02 ± 0.076
62 | TGGTCAAATC | 1 ± 0.051
63 | CTACTGCCGT | 1.02 ± 0.034
64 | GGTGGGATGT | 0.981 ± 0.02
65 | AATGGGCAGC | 1.02 ± 0.013
66 | ATCGATTTCT | 1.004 ± 0.0049
67 | CGGGTTGGAA | 0.9731 ± 0.0091
68 | GGCCCGGGGA | 1.02 ± 0.042
69 | AGTAATTTGC | 1.02 ± 0.012
70 | CATGGGCCGT | 1.02 ± 0.035
71 | TTTACCTTGC | 2.03 ± 0.19
72 | AGCAGGCCGG | 0.976 ± 0.025
73 | ACAGGGGGGC | 1.06 ± 0.03
74 | ACCTCAGCTT | 1.48 ± 0.021
75 | TCCGTGTGGT | 1.07 ± 0.051

Row | Sequence | switch fluorescence ratio
76 | TGTTTGGCTG | 1.054 ± 0.0084
77 | TTGAGCGAGG | 0.961 ± 0.01
78 | AGTTGGGTTG | 1 ± 0.023
79 | ATGAGGTCTC | 0.98 ± 0.046
80 | GAGGAATTTA | 1.02 ± 0.028
81 | GAGCCTTATG | 0.994 ± 0.033
82 | GGATTAGGGC | 1.02 ± 0.041
83 | AGTTTAAGTG | 1.01 ± 0.013
84 | ACATCTCGTT | 0.96 ± 0.041
85 | CCAGACACAG | 0.9849 ± 0.002
86 | GTAGGACGGG | 0.995 ± 0.012
87 | TCATCTACAG | 1.02 ± 0.013
88 | TGGTAAAACT | 1.06 ± 0.034
89 | AGATGGTCAC | 1.032 ± 0.0086
90 | TGAGTGGGTT | 0.975 ± 0.031
91 | CCCTATTTGC | 1.06 ± 0.02
92 | AAAGGGTTGG | 1.02 ± 0.02
93 | AGTATGAGGG | 1 ± 0.076
94 | TGGTTAAAAT | 1 ± 0.025
95 | TGAAAAAAGA | 0.988 ± 0.019
96 | TTTGAAGAAC | 1.01 ± 0.056
97 | TGGGTTCACT | 1.02 ± 0.017
98 | CCAGGGGGTT | 1.51 ± 0.59
99 | GTAGTTTGAG | 0.996 ± 0.015
100 | AGTTGGGGCG | 1.01 ± 0.039

Row | Sequence | switch fluorescence ratio
101 | GAAAGCATAT | 1.01 ± 0.034
102 | TTTGGCTGAA | 1.01 ± 0.019
103 | ACCCAAACAA | 1.06 ± 0.028
104 | TGGCGAGAGG | 1 ± 0.022
105 | TTGATGCGTT | 1.01 ± 0.015
106 | ACGGCTTTCG | 1.05 ± 0.097
107 | AGAGGGAAAC | 1.14 ± 0.3
108 | ACCATGTACT | 1.07 ± 0.016
109 | TTTGGAGTGG | 0.998 ± 0.033
110 | AATTAGGATT | 0.99 ± 0.016
111 | GACGGGAGCT | 1.06 ± 0.021
112 | AATATGTATG | 0.996 ± 0.024
113 | ATTGTACGGT | 1.03 ± 0.013
114 | AGGTTGCTCT | 0.9947 ± 0.0098
115 | TGGTACATCA | 0.973 ± 0.054
116 | TTAGTTTAGG | 0.9824 ± 0.0096
117 | AGGAATGGTT | 0.992 ± 0.041
118 | AAGTTCGGGG | 1.05 ± 0.088
119 | GTTTTATTGT | 0.955 ± 0.038
120 | CATTGATATG | 0.9912 ± 0.0091
121 | GCCGCTGGGA | 1.01 ± 0.022
122 | TTTTTTAGT | 0.992 ± 0.027
123 | TCGGAATGGC | 1.27 ± 0.23
124 | CAAGAGCGGT | 1.02 ± 0.047
125 | TCATGATGTA | 0.9848 ± 0.0061

Row | Sequence | switch fluorescence ratio
126 | CGGAGGACCA | 0.978 ± 0.023
127 | TTGTAATAGG | 1.27 ± 0.4
128 | CGTTACAGGT | 1.04 ± 0.028
129 | AGCTTAGGGG | 1.07 ± 0.11
130 | ATCAGAAGGT | 0.995 ± 0.021
131 | GGTAGTGGCT | 0.993 ± 0.01
132 | AGGCTAGGGG | 1.01 ± 0.042
133 | CGATTTTTTC | 0.9774 ± 0.003
134 | CATCAAGGTA | 1.04 ± 0.025
135 | ATATGGTGGT | 1.03 ± 0.023
136 | ATAAGCGTCG | 1.02 ± 0.013
137 | TGTGAAAGGC | 1.04 ± 0.03
138 | GGTGGGTTAG | 1.02 ± 0.032
139 | TTATAGGTTT | 1 ± 0.019
140 | GGGTTGTAAG | 0.986 ± 0.013
141 | TGAGACTGGG | 0.993 ± 0.02
142 | AAGGTATCGG | 0.987 ± 0.037
143 | CAGATAATAT | 1.04 ± 0.022
144 | TAAATTTTAA | 0.9818 ± 0.0082
145 | ATTTTAATCG | 0.985 ± 0.03
146 | TTAAAGTGAA | 0.988 ± 0.024
147 | AATAGTATCT | 1.01 ± 0.029
148 | TAGTCGGGTT | 0.9613 ± 0.0059
149 | TTTTAGCTTC | 1.03 ± 0.017
150 | CAGGCTGTCG | 1.02 ± 0.036

Row | Sequence | switch fluorescence ratio
151 | TGCATTTGGA | 0.978 ± 0.015
152 | AAGACGTTTT | 1.014 ± 0.0011
153 | TATGAGGGGG | 1.02 ± 0.04
154 | AAGAGGATAG | 0.983 ± 0.043
155 | TTCCTGGCGG | 1.11 ± 0.1
156 | CGTATAGGTC | 0.999 ± 0.033
157 | ACGCCGTCGA | 1.035 ± 0.0099
158 | GGTAGGGATA | 1.08 ± 0.11
159 | ATAAGAAATA | 0.996 ± 0.027
160 | AGAGAGGGTG | 1.06 ± 0.048
161 | TTGCGTTTCT | 1.08 ± 0.086
162 | TTGCTAGGGA | 1.01 ± 0.055
163 | CGGTCAAAAA | 1.03 ± 0.033
164 | AGCTATCACG | 1 ± 0.032
165 | GTGGGGGTAT | 1.05 ± 0.15
166 | TTCCGGTTGG | 1 ± 0.023
167 | AAAAAAGGAT | 1.024 ± 0.0086
168 | TGCAGTAAGG | 0.97794 ± 0.00081
169 | AATAATGTTC | 0.9805 ± 0.0071
170 | AGCTGTTTAC | 1.09 ± 0.016
171 | GGGGTATGTT | 0.99 ± 0.036
172 | TGGGTATAAT | 1.014 ± 0.0096
173 | TTATTGCTGT | 0.989 ± 0.013
174 | GCGTGATAGA | 1.04 ± 0.017
175 | GATAGACTTT | 1.02 ± 0.048

Row | Sequence | switch fluorescence ratio
176 | TCCTGAAAAC | 1.1 ± 0.087
177 | TTAAAACCTT | 1.56 ± 0.46
178 | CGCGGGCCGT | 0.981 ± 0.024
179 | TTATTATTCA | 1.008 ± 0.0047
180 | GACACGGGCG | 1.044 ± 0.0035
181 | TGTCAAAAAT | 0.982 ± 0.043
182 | GATTTTGT | 0.969 ± 0.037
183 | TAAGATGGGG | 0.9623 ± 0.0054
184 | TGGGATGGAG | 0.976 ± 0.037
185 | TATAAGGAGG | 0.9935 ± 0.0033
186 | ATTAGTCCGG | 0.994 ± 0.03
187 | ACTCTTACTT | 1.157 ± 0.0042
188 | GAGGGTGCGG | 1.01 ± 0.027
189 | TTCTGGGGGG | 0.991 ± 0.027
190 | AAAGTCGCGT | 1 ± 0.032
191 | GAGTCTATTG | 1.023 ± 0.0022
192 | TCACGGGCAG | 0.978 ± 0.012
193 | ATGGGTATTG | 1.009 ± 0.0039
194 | AAGGGCTAGG | 0.999 ± 0.014
195 | GGTTCTTAGT | 0.978 ± 0.05
196 | ATCGGGTATG | 0.9987 ± 0.0082
197 | CAAGGGGTCC | 1.01 ± 0.032
198 | ACCAATTGGT | 1.02 ± 0.012
199 | TAGCTCGTTT | 0.995 ± 0.038
200 | GGATGTCCAG | 0.947 ± 0.028

Source: the supplement of paper PMC10126150
